{"source": "paper PMC6669380", "origin": "cited, not measured here", "molecular_target": "SLP-76 RxxK motif (Homo sapiens) (UniProt Q13094)", "data": [{"substance": "Gads C-terminal SH3 (from UniProt O75791)", "values": [{"measurement": "Kd", "value": 14.5, "unit": "nM"}]}]}
